B1: S1-RBD-R3-E1-E8 Ab (Ab 37) (scFv, V domains shown)
VH: QVQLVQSGAEVKKPGASVKVSCKASGYTFTSYGISWVRQAPGQGLEWMGWISTYNGNTNYAQKLQGRVTMTTDTSTSTAYMEVRSLRSDDTAVYYCARDVFGHFDYWGQGTLVTVSS
VL: NFMLTQPHSVSESPGKTVLISCTRSSGNIATNYVQWYQQRPGSAPTTVIYEDNQRPSGVPDRFSGSIDSSSNSASLTISGLKTEDEADYYCKSYDDGNHVFGGGTKLTVL
B2: Ab 38 (scFv, V domains shown)
VH: QVTLKESGPTLVKPTQTLTLTCTFSGFSLTTSGVSVGWIRQPPGKALEWLALIHWDDDKRYSPSLRSRLTITRDTSKNQVVLTVTDMDPADTGTYYCASFIMTVYAEYFEDWGQGTLVTVSS
VL: EIVLTQSPATLSVSPGERATLSCRASQSVSSNLAWYQQKPGQAPRLLMYDVSTRATGIPARFSGSGSGTEFSLTISSLQSEDFAVYYCQQRGAWPLTFGGGTKVEIK
B3: S1-RBD-R3-T1-C7 Ab (Ab 29) (scFv, V domains shown)
VH: QVQLQQSGPGLVKPSQTLSLTCAISGDSVSSYSDAWNWIRQSPSRGLEWLGRTYYRSKWYNDYAVSVKSRITINPDTSKNQFSLQLSSVTPEDTAVYYCAREIVATTPFRNYYYGMDVWGQGTTVTVSS
VL: NFMLTQPHSVSESPGNTVTISCTRTSGSIASNYVQWYQQRPGSSPTTVIFQDKLRPSGVPDRFSGSIDSSSNSASLTISGLKTEDEADYYCQSYDSSSLWVFGGGTKLTVL
B4: RBD-R3-T1-H3 (Ab_2) (scFv, V domains shown)
VH: EVQLVQSGAEVKKPGSSVKVSCKTSGYTFTTSGISWVRQAPGQGLEWMGWISAYNGNTNYAQKLQGRVTMTTDTSTSTAYMELRSLRSDDTAVYYCARDFHLYYGMDVWGKGTLVTVSS
VL: QSALTQPPSASGSPGQSVTISCTGTSSDVGAYNYVSWYQQHPGKAPKLLIYDVTKRPPGVPDRFSGSKSGNTASLTVSGLQAEDEADYYCAVWDDGLNGRVVFGGGTKLTVL
B5: RBD-R3-E1-F5 Ab (Ab_36) (scFv, V domains shown)
VH: QVQLQQSGPGLVKPSQTLSLTCAIFGDSVTSNSAAWNWIRQSPSRGLEWLGRTYYSSKWYNDYAVSVKSRVTINADTSKNQLSLQLNSVTPEDTAVYYCARGWLRLSFDPWGQGTLVTVSS
VL: NFMLTQPHSVSESPGKTVTISCTGSSGSIASNYVQWLQQRLGSAPTTVIYEDNQRPSGVPDRFSGSIDSSSNSASLTISGLKTEDEADYYCQSYDPNNHGVVFGGGTKLTVL
B6: S1-RBD-R3-T1-B12 Ab (Ab_31) (scFv, V domains shown)
VH: QVQLVQSGAEVKKPGSSVKVSCKASGGTFSSYTISWVRQAPGQGLEWMGGIIPILGTPNYAQKFQDRVAITADKSTSTAYMELSSLRSEDTAVYYCAVGSGWYSGFDYWGQGTLVTVSS
VL: NFMLTQPHSVSESPGKTVTISCTGSSGSIASNYVQWYQQRPGSAPTTVIYEDSQRPSGVPDRFSGSIDSSSNSASLTISGLKTEDEADYYCQSFHNSNPVIFGGGTKLTVL
B7: S1-R3-T1-C4 (Ab_8) (scFv, V domains shown)
VH: QVQLVQSGAEVKKPGSSVKVSCKASGGTFSSYAISWLRQAPGQGLEWMGWINPNSGGTNYAQKFQGRVTMTRDTSISTAYMELSRLRSDDTAVYYCARGSGGYYLGWGQGTLVTVSS
VL: QPGLTQPPSVSKGLRQTATLTCTGNSNNVGNQGAAWLQQHQGHPPKLLSYMNNNRPPGISERFSASRSGNTASLTITGLQPEDEADYYCSAWDSSLSRWVFGGGTKLSVL
B8: S1-RBD-R3-T1-D7 Ab (Ab_34) (scFv, V domains shown)
VH: QVQLVQSGVEVKKPGESLKISCKGSGYSFTSYWIGWVRQMPGKGLEWMGIIYPGDSDTRYSPSFQGQVTISADKSISTAYLQWSSLKASDTAMYYCARTTYSYGSFDYWGQGTLVTVSS
VL: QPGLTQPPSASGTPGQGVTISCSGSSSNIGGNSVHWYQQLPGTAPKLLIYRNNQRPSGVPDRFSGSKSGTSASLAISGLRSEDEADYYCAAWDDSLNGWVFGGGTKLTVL
B9: Ab 30 scFv-Fc (RBD-R3-E1-A5) (scFv, V domains shown)
VH: QVQLVQSGGGVVQPGKSLRLSCTASGFTFSDFPIHWVRQAPGKGLEWVGVISYDGNIKYYGDSVKGRFTISRDNAKNSLYLQMNSLRVEDTAVYYCARGGSSFDIWGQGTTVTVSS
VL: SYELTQPPSVSEAPRQRVTISCSGSTSNIGNNAVSWYQHLPGKAPKLLIYYNERLPSGVSDRFSGSKSGTSASLAISGLRSEDEADYYCAAWDDSLSGHVVFGGGTKLTVL

The binders below were run against Biotinylated SARS-CoV-2 S1 protein (ACRO, S1N-C82E8) (UniProt P0DTC2 16-685) (assay: BLI).

**Q.** How did the Kd turn out when B1 was run?
**A.** 0.907 nM

**Q.** For B2, which Kd is on record?
**A.** 0.22 nM

**Q.** With B3 as the binder, how does the Kd read?
**A.** < 0.001 nM

**Q.** Which Kd does the source give for B4 here?
**A.** < 0.001 nM

**Q.** How did the Kd turn out when B5 was run?
**A.** 0.0306 nM

**Q.** For B6, which Kd is on record?
**A.** 2040 nM

**Q.** Which Kd does the source give for B7 here?
**A.** 325 nM

**Q.** With B8 as the binder, how does the Kd read?
**A.** 0.184 nM

**Q.** B9 was tested. Which Kd did it give?
**A.** 0.314 nM
